Measured values as given in article PMC9428852, “The N-linker region of hERG1a upregulates hERG1b potassium channels” (The Journal of Biological Chemistry, 2022).

Molecular target: T1, 6xHis-hERG1a N1–354-FLAG (human, UniProt Q12809 1-354)
T1 construct: Plasmid made commercially (BioInnovatise); also called hERG1a N-terminal region; source: bacteria, M15 cells, purified (nickel column); not shown: His6, N-terminal, kept; FLAG, C-terminal, kept
Assay: pull-down; GST or GST fusion protein bound to glutathione beads, incubated with 6xHis fusion protein in buffer S (50 mM Tris pH 8, 150 mM NaCl, 25 mM imidazole, 0.25% Tween-20) with 0.5% CHAPS, overnight at 4 °C; washed; Western blot with anti-FLAG
Details: both partners purified

T1 sequence (Q12809 1-354): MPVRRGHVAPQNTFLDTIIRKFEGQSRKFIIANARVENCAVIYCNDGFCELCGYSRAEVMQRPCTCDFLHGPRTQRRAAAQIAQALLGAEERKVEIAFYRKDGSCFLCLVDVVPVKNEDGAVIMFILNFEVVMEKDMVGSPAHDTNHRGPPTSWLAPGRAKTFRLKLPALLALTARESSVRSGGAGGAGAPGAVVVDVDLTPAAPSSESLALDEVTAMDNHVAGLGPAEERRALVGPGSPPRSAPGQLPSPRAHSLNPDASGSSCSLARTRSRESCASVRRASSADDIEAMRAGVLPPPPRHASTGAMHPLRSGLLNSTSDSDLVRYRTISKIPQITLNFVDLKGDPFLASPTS

B1: GST-hERG1b N1–56 (domain or fragment, human, UniProt Q12809-2 1-56, looked up)
chain: MAAPAGKASRTGALRPRAQKGRVRRAVRISSLVAQEVLSLGADVLPEYKLQAPRIH
notes: hERG1b (KCNH2 isoform 1b), human, N-terminal region residues 1-56; numbers count on: hERG1b; Plasmid made commercially (BioInnovatise); also called hERG1b N-terminal region; GST–hERG1b N-terminal region; not shown: GST, N-terminal, kept
B1: binds.
